# From patent US20260209316A1 (US Dept. of Health and Human Services, published 2026)
# Where a chain is given by its changes, count along the chain named. Read-outs that look alike come from different tables or passages of the source.
# B1: antibody 16F6 (antibody, V domains shown)
# VH: EVQLVESGGGLVTPGGSLKLSCAASGFAFNYYDMFWVRQNTEKRLEWVAYINSGGGNTYYPDTVKGRFTISRDNAKKTLFLQMSSLRSEDTAMYYCARQLYGNSFFDYWGQGTSLTVSA
# VL: DIVMTQSHKFMSTSVGDRVTITCKASQDVTTAVAWYQQKPGHSPKLLIYWASTRHTGVPDRFTGSGSGTDFTLTLNSVQAEDLALYYCQQHYSTPLTFGAGTKLELK
# B2: Fab generated from 291S (Fab, V domains shown)
# VH: QVQLQESGPGLVKPSQTLSLTCTVSGGSFSSGFYWSWIRQRPGKGLEWVGYTYYSGSTYYNPSLQSRVTISVDTSKNQFSLNLSSVTAADTAVYHCARADYGGLFDYWGQGILVTVSS
# VL: QSVLTQPSSLSASPGASASLTCTLRSGINVGTYRIFWYQQKPGSPPQFLLRYNSDSDKQQGSGVPSRFSGSKDASANAGILLISGLQSEDEADYYCMIWHTSAWVFGGGTKLTVL
# B3: Fab generated from 545S (Fab, V domains shown)
# VH: QVQLQESGPGLVKPSQTLSLTCTVSGGSISRAGSYWSWIRQHPGKGLEWIGYISYSGSTYYNPSLESRVTMSLDTSKSQFSLKLSSVTAADTAVYYCAREDRSGFYGLDVWGQGTTVTVSS
# VL: B2 VL with S17T, G31D, F36Y, F48Y, N53K, Q59H, E89A, T101S, S102G, L115Q
# notes: also called 545S Fab
# Key:
# [1] = target: T1, full-length Sudan GP (GPFL) (Sudan virus (SUDV), UniProt Q7T9D9 33-650); experiment: ELISA on coated GP
# T1 construct: also called Sudan GPFL; GP(S)FL
# T1 sequence: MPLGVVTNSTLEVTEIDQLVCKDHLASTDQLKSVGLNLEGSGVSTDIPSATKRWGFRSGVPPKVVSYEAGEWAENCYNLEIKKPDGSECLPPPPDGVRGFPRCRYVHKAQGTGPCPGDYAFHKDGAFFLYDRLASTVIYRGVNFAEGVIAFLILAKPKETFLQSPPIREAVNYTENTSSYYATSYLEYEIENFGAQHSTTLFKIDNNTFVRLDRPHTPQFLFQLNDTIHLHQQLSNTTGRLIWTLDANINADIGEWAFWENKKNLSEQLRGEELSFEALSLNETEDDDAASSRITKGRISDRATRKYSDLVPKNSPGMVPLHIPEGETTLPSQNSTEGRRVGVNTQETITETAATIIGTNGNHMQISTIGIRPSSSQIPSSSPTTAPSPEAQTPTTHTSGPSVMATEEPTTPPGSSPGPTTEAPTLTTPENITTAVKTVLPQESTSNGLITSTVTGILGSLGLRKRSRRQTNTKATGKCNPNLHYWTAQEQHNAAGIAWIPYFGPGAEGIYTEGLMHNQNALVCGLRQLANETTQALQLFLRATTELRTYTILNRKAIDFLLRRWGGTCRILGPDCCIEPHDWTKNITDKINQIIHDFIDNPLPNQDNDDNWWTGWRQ
# [2] = target: T1, full-length Sudan GP (GPFL); experiment: ELISA on coated GP; remark: listed apart in the source
# [3] = target: T2, SUDV GP on pseudotyped lentiviral vector (Sudan virus (SUDV), UniProt Q7T9D9 33-676); experiment: cell-based or functional assay
# T2 sequence: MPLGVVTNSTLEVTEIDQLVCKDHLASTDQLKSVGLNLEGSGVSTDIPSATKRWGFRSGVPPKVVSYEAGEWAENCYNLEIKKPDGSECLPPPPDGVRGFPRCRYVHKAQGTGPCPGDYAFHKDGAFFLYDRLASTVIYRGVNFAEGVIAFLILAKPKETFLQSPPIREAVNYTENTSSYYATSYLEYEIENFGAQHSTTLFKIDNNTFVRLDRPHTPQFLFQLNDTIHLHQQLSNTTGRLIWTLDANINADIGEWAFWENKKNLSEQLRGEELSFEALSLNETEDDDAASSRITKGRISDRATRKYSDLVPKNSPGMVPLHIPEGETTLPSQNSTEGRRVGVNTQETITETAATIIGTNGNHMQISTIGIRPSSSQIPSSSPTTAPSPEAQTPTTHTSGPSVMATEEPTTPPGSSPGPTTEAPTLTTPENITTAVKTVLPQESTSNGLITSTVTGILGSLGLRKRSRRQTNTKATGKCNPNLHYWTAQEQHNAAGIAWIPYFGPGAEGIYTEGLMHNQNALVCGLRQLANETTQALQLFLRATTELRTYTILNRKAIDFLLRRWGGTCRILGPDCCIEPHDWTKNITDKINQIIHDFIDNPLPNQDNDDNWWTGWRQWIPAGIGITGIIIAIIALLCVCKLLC
# [4] = target: T2, SUDV GP on pseudotyped lentiviral vector; experiment: cell-based or functional assay; remark: listed apart in the source
# [5] = target: T1, full-length Sudan GP (GPFL); experiment: BLI, Fab, pH 5.3
# [6] = target: T1, full-length Sudan GP (GPFL); experiment: BLI, Fab, pH 7.4
Binder,EC50 [1],EC50 [2],"IC50, microneutralization of GP-pseudotyped lentiviral vector on HEK293 cells [3]","IC50, microneutralization of GP-pseudotyped lentiviral vector on HEK293 cells [4]",Kd [5],koff [5],kon [5],Kd [6],koff [6],kon [6]
B1,0.068 µg/mL,0.16 µg/mL,0.068 µg/mL,0.04 µg/mL,,,,,,
B2,,,,,4.27 nM,0.00011 s⁻¹,25700 M⁻¹ s⁻¹,2.97 nM,0.000131 s⁻¹,44200 M⁻¹ s⁻¹
B3,,,,,1.97 nM,0.000147 s⁻¹,74300 M⁻¹ s⁻¹,1.26 nM,0.000125 s⁻¹,99200 M⁻¹ s⁻¹
